Assay results reported in IntAct's records for PubMed 11483518.

B1: POU domain class 2-associating factor 1 (Homo sapiens), Q16633 (parent)
chain: MLWQKPTAPEQAPAPARPYQGVRVKEPVKELLRRKRGHASSGAAPAPTAVVLPHQPLATYTTVGPSCLDMEGSVSAVTEEAALCAGWLSQPTPATLQPLAPWTPYTEYVPHEAVSCPYSADMYVQPVCPSYTVVGPSSVLTYASPPLITNVTTRSSATPAVGPPLEGPEHQAPLTYFPWPQPLSTLPTSTLQYQPPAPALPGPQFVQLPISIPEPVLQDMEDPRRAASSLTIDKLLLEEEDSDAYALNHTLSVEGF
partner: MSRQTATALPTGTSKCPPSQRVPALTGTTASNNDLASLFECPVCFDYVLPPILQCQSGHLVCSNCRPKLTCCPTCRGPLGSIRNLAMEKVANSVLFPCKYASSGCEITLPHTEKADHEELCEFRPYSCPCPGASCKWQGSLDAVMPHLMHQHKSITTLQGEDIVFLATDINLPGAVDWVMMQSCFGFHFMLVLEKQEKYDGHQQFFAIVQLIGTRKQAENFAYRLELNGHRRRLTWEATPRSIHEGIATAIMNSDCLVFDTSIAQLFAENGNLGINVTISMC

Variants of: B1
Settings: with siah1_human SIAH1, Q8IUQ4

Row | Variant | effect of a mutation on the interaction
1 | MLWQKPTAPEQAPAPARPYQGVRVKEPVKELLRRKRGHASSGAAPAPTAVELPHQPLATYTTVGPSCLDMEGSVSAVTEEAALCAGWLSQPTPATLQPLAPWTPYTEYVPHEAVSCPYSADMYVQPVCPSYTVVGPSSVLTYASPPLITNVTTRSSATPAVGPPLEGPEHQAPLTYFPWPQPLSTLPTSTLQYQPPAPALPGPQFVQLPISIPEPVLQDMEDPRRAASSLTIDKLLLEEEDSDAYALNHTLSVEGF [V51E] | disrupting interaction
